A short description of the series: label from the status in PepcDB records.
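Further: failed if final PepcDB status was selected cloned or expressed and not failed if soluble or beyond.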

Turning to “MKREGNMTLLVRNFIVSIALAISDFFSFVISLYLAIGVLSITISDYETVISVNQLEGWKALHWLLGLCCIAWYSMRLRHYFYRKTFWFELKEILRTLVIFAIIEIAVMAFASWSFSRYLWVLTWFFVLLLVPLARMVTKRVLDVFGLWHRDTWIIGSGANAQEAYKAINSERNLGLVIVGFIAVTGERSENKDINGVPVLAHDPDWLSSMDKKTQFIVAVESHQSEVRNAWLRNFMIKGYRYISVIPTLRGMPLDSTDMSFIFSHEVMIFRVQQNLAKWSSRILKRAFDIVGSLAIIIILSPALIYISRKVKRDGGPSIYGHERIGKGGKSFKCLKFRSMVINSKEVLEKLLDSDSEAKKEWDATFKLKNDPRITKIGAFLRRTSLDELPQLFNVLKGEMSLVGPRPIITAELIRYNDEVDYYLLSKPGMTGLWQVSGRSDVDYETRVYLDAWYVKNWSMWNDIAILFKTISVVLKKDGAY”, the protein production result is recorded as “failed”.

In the case of “MKRENIKTILLTVLVVISLVFTWGIWTFQPNFSEGSSSTESTVRVKHKIEKTTQKLSETVRPRDMFIHDDGAHYKVDDNALYEEIWSDLPHWDVKGIKDISDQYDKAGFKSWFYGIGGSEAKLDLQFSDTIPIDIFQTLFKWSNQSFEYSSFDHILIPFNETKANKKIYLVSYSKQLILEVTVESANYRNIMNDLKNRQSNMPAFSLFSIGSKKEFLLPNKPLTMDKKEFVTESIKTNTFKQALFSDPSIVREDSNYNNRNVLTDGISRLDVNLSQRQVQFQQRNLVQSTSYQTGELIKKSQKYLEDTGSWTDHYQFFNINDSQQLSFYIFMDQIPVINSTAKPFGATSAITVQWANDDILSYKRPNYSLGTNPIKTSETELMGGSEVKMLLSKQTAYDTDKIDQIFLAYQLVSTSTNDDPLVELEPVWAMKVNGKIVPITKDLLRKEGANSGVE”, the protein production entry was “failed”.

For the sequence “MKRFILLSFVVLALGFYELSGGPDFDPEVARASIIDARQERELARKAALPGPVYVAAAPSAEPEVEDSVTRANLNLVSFASVVAEPEISTVTAPVAVARADTPETAPEITVKRLAAAQDEPLSLAALSPAQEPSRNVFAGSSIVASSSDINGEKNLRSVKGTRVNMRSGPGTQYDVVAQLTQSEEVEVLTDTGNGWVELRPLEGGPTGWVAEFLLTGG”, the protein production result is “failed”.

In the case of “MKRFINRRQELDFLEKQYREQNSSLVIIYGRRRIGKTALIKKFIEDKPAIYFLASEEAESQNIEYYKKAVGNFLKNPLIERLSGVGWDDIFDVIINAKINKKTVIVFDEFQNLCKTNPAFASIVQRIWDEKLKNHNFMLILSGSLVGMMQEHALSYSSPLYGRRTGQIKLKQFSFKEAKEFFPEASDDQFIWIYSIVGGVPKYLEMFKFEGDIYKAIEENILSRQSFLYEEPLFLLEKEVHEVGSYFSIIKSIALGNHKLSQIAQSLSTAQTKLTKYLNTLIDLDIVRREVPVTEEYPEKSKRGLYFINDNFIDFWFKFVYPYREQLELDNTEYVIENIKSKIVTNHISFIYEEVCRQILMDLIKTKEIDIQLDRIGKWWDSKSEIDIVGISKNTGHVVFGECKYSQRVVDIDVFFNLKKKAENIKVFPEQKELYILFSRTGFSERLLEFAKETENLILIKFP”, the protein production entry is given as “failed”.

Take “MKRFPFRPRLLVTVSLVALLLPGCASKPNNLKPSMPEPRLGVASENPGKPKKGKQASSGSQYDTLWERMFSLYALPQVEHRSVEREVSWFINHPDYLKRAQKRAEPFLYTIVRQLEKQKMPGELALLPIVESAFQPHAVSPARAAGIWQFIPETGRRYGLKRSRSYDGRRDVYASTRAAIKYLKKLHNDFNGDWLLAIAAYNCGEGAVAKAIQRNEARNLPTDFWSLDLPDETKAYVPRLLAVSKVFANADKYAIDLHYIPNEAIFKPVKVSSQLDLALAADAADMSLERMLELNPGFKHPHADIEGSYRLFVPADKSRKFKKELARLAMSGQFDSHPPADEGDGSTGFGHRGSLETATEDDAAPGRERSVRKPVVSGYGAEYAVPSRSAERGGPAKDSSRSERWQSVETPSRGGSAVVAHLRDGSRLRDVWGREHGQEDKPLKGNRRPDERLGLSSKANPNRKEGGRKVAGGSALSREEALREERGDRGKEKHAISIPFDERHGGGIKASQSIRHTVKPGETLFAISQRFGVSVADLRKWNGVKENKLEAGRNIRVSAGKD”: the protein production entry is given as “failed”.

“MKRGLRKERNKEDEAGKIVNEGKAHLFYKVIILMVFYISYGIYLYWRFAYTIPRGYGDIALIAGYVLFIAETIGFLESSMFYLTLWDTNTPSTPEVQDKEFPHVDIFIASYNEPRNLLYKTLIGCKNMDYPDKSKVHIYICDDGNRKDIKELCESLKVGYITREDNTHAKAGNLNNALKQTSSPYVVTFDADMIPMHDFLLKTIPFFMVEDKIGFVQVPQNFYNADPFQYNLFNESRVPNEQNLFSRLIQAGKNRFNAIIYSGSNTVLSREALNEINGLVVGTITEDFATGMKIQSKGYKCIYLNETHASGLSPESLEDLYSQRIRWGRGVIQTFKAFNPLFMRGLNIYQKLMYFSAFSYWYFGLWRLIFFMAPIVFSVFGVVVLSTSAIQMLEVWLPMFIFTNLTFYHFSKKVRSVSWTHIYDTILFPQITVGILKETFGFKMSKFKVTPKENVRRDNFTNRFELVRVQIVLAVLSFAGIVRIIYLYVTNNFEAQYIINLFWLTYNFYLLVMAIFFASERPKFRNNERMFVSEEAYVVNNEQKLYGKTIDISETGISIKLEKPICIDPNENYSIGVKTARNSAEFSGKIVRVDNFKDGHKYAFNITEIDEKNFSELILILYDRVPPSPEKQKRDYMTVNVLRNIINRKKRIVPLNRKLPRVKIDKKVKILVSKNEEGIHVVDFNYMYIAVKCVQEYDSFILPLSEKFNINLNCTYDKTLSERNRKKVSIYKVTNYDEFKDHDLLELLKAVPVYNEELNIHEKVAAVK”: the protein production entry is “failed”.

For the sequence “MKRIQVSPHIYKLESWFLLKMSAWIVKEDEGVYIVDTGMPYMGKRILKEAEKLGKVKGVLLTHGHSDHVGGLKKILDIQDLPVYVHTLDIKHMEGKEPFPGRKKREYLVEPGVAKPLPVDEDGEFRCFGNLVPYHTPGHSPGHVCYYHKKDRVLIGGDLFTSKRGKLQQPIKMFTADMNEAVRSGEIVKKLQPSKVSICHGNDIDNPHTQIDEYLTHYKYERNDQQKIKNEDRTIS”, the protein production result is “failed”.

Turning to “MKRKAFLALGFLALGLGVSQVGPFRARLEAAIQTGGEAFAQVMLSQDKAQALCTQYRDKLPPELVPAFLAEQRALIKYPASGKLMGDWKNGEKVFTDPKRGNCYACHQGDPREVAYGTMGPSLTGYGQRGLSEAVVRYTYEKIYNAWAFVPCSLMYRGGVHGYFTPEETADLVAYLLSPESPINRR”, the protein production entry is reported as “failed”.

Turning to “MKRKLLAILLSVSMIATLVTACGSKEVSDNSAKEEGVTVEDVKAALKDENAVVLDARTQDAYAGWSTENNKLGGHIESSSGFSAAWLTCEYDDEANDDNRTREERLEICMEDKGITADTKVIIYDENGKDAAAVSEYLSGKGVKDIETFNLADWDGELVKYENYQTILPPSIVKKLIDGETVEEVGEVKDLKVLEFSWGTEEESGYLEGHVPTAIHINSDDVDDENNIYVLDKDEILLETVKKAGVTVDSTVVVTGAGLFSCHLATILKYLGVEDVYIMSGGANGWTDAGYEAEKGSNTPVAVEDFGTDKPLNPDYIDDVEEVSLLLTDKNAQVIDTRAYKEFTGESSGYSYVEEAGRLNGAIFGQEDGSAQGPDCTGSSMMYYENIDGTMRDASEILEMWSNSNVDVNKHLSFYCGGGYRAAAVMWYAQAMGLEDTSLYNDGWAGWIVYGKDAVKGTYEDPQPVN”, the protein production entry is recorded as “failed”.

On to “MKRKMENMKYTMSYIAKNFRVALMLSLMMLLCSCSSEDKLELHKGATLPIMQGIADNVPYIQSVEKELTYDLYDGVRITDVIFTYCAKPTRMIIAEVDLNKNVTIVTSTPDNKPEVGKILQQVTVQAEKAEAAGRKVILGTNGDFYSKKNDLWIPGGLFYKDGVAIKTEIGWEADHVFYMLKDGTAHITSVPEFKLVEREVVHAIGGWQRMVQDGEVVKNFTVNDNAMQFHPRTFVGVSADNRKVYLFVVDGRQPEYSNGMRLEDMMLLCQGAGCYQAFNMDGGGSTTMVRRVEKGSSVSFEVMNQPSDNPARSVINGLQVIEKTN”, for which the protein production entry is “failed”.

On to “MKRKSIFLTFGLLVLSWIGCVENDLPYPTIVGQITEMEVAGMTSCRILGASNTVEIKVADTIDLRDLRVEKLVVTEGMKVYPDSAACLDIAHFPDTGFVSADSLPAGMDTRMNFLNPVKFRLSLYQDYDWTVNVSRDIVRKIKIKNQVGSALIDDYTKNVIVYVDSTEQPSLRNIEIEELQLGSSIAQTTPDPSKVVDFTRPRVFYVTAFDETEEWTLSVQYPNANVQLTQLSAWTRRAYVSGSISKGEVEAEYRKAGETVWESVLPNEISYEGEDFLIMMTHLAAGTNYEYRLTMNGTVGEILTFTTDTIMQVPNLGFDDWVMKNEKTWYPNATLDDADHFWDSGNEGASIASRNPTAPETGDVVKGRAVRMASDYISIASKFAAGNIYTGDFVGLAGIEGAELDFGQPYTGRPSALKGYYRYTPGVIDQAKAPYDALMGQTDSCHIYIGLFDWSAPFRVNTTTGTFVDLTWNNESMIAFGELKSNEATGSEYKQFKINLTYRDYFTHPKYILIVASASKYGDYFTGSTSSVMYLDECELVFE”, for which the protein production result is on record as “failed”.

In the case of “MKRKTAVKWLAVLAGAGLLYWGNKTYLNVSPKEIRVWVLSFGVFAPLMFIGISIVRPLVLFPVSVISIAGGLAFGPLLGTLYTLFGSMCASAVSFFAAGLFSAKKNGHYERLEAIQKQMEDNGFFYIFLLRILPINFDFVSYAAGLSNVKALPYFAATAVGIIPGTIALNVLGASFLAGNLPAFFMVLALYIVFISLPFIFRKKMQNLFQESN”, the protein production result was “failed”.

On to “MKRKVQVKNITIGEGRPKICVPIIGKNKKDIIKEAKELKDACLDIIEWRVDFFENVENIKEVKEVLYELRSYIHDIPLLFTFRSVVEGGEKLISRDYYTTLNKEISNTGLVDLIDVELFMGDEVIDEVVNFAHKKEVKVIISNHDFNKTPKKEEIVSRLCRMQELGADLPKIAVMPQNEKDVLVLLEATNEMFKIYADRPIITMSMSGMGVISRLCGEIFGSALTFGAAKSVSAPGQISFKELNSVLNLLHKSIN”, for which the protein production result is listed as “not failed”.

Regarding “MKRKYFPFSAILGQEDLKKALLLNAVNPRIGGVLVRGEKGTAKSTAVRALGALLAAARNGSGGEGEVVVTLPLNATEEMVAGGIDFQQTMKEGRRVFQPGLLAKAHKGILYVDEVNLLDDHLVDIVLDAASSGENRVEREGITLSHPSLFVLAGTMNPEEGELRPQLLDRFGLCVEVRGEADPALRVDLMLRREAFDREPEEFSERYRAEEERLGRTIADAQSLLPSVRIPSHLRGFISELCRNSNVAGHRADLVIEQAARANAALRGSREVSVEDVTKVAGFALVHRRRDPVPPPEQKPQEPERQEEQSRDEQSRQEKPEERGDEPQQPQEGDDRRDGNDDSGNEERSQPENRDAAEQQERPDNEGQDELFSIGQSFRVRSIATPKDRKMRRGSGKRSRSRVSQKQGRYTKSTMPRGNNDIALDATLRAAAPFQRHRENPNGMAVVLQNEDIREKIREKRLGNLLIFVVDASGSMGARGRMAASKGAVMSLLLDAYQKRDKLAMVSFRKNEAFVNLPVTSSIELAARMLKEMPVGGRTPFSAGLLKGYEIAQNYLRKEPGGRPLIILVTDGKANRAIGQGKPLDEVFTISEKISREERIRFLVVDTEEPGLVTFGLAKKIAGLLDAWYYRIDDLRADTLVSIVKTMMP”, the protein production entry is “failed”.

As to “MKRVALIHGWGGSFAATWEADGWSDALRAAGFDPVGVTIAGHGPEGGSHDPADYADLAGDLAAKLPAGLHGAIGFSLGTKLLLELEARSPGRNGRLVLGGIGDNLFAPEAAGPALVAALRGEATTPPPQVAALLAYAEKSASDPACLAAILERPANPVLTEDRLATAQAPILIFNSRDDAVAQPDTRLCRAMPHASHRLIEGPGHVALTSDARFREAAVEFLSK”, the protein production entry was “failed”.

Regarding “MKRVANWLAITGFVVHAISLVAGLQGHTWETISKGYFLQMLSWSMLLIYLFVWWKFKLDFLSALASPFALLIYLSSFKVAEVQSKLPESLSGLFFGLHIGTLFLSFGLMAMAFGAGVLFLHMERKIKTKEPLTGFRKDLPALSTFDRVNRLCVVWGFPLFTLGIVSGFVWAHPAWGKVITWDPKEIVSLAVWVMYALLFHQRVALGWQGRKPAVMVIWIFAVSVFSLIVVNVFMPTHHSFIQQ”, the protein production result is recorded as “failed”.

Source of the values: a protein production outcome set (Wang et al. 2014).
